# Measured values reported in the supplement of paper PMC10567573.
# B1: FCHO1 (parent)
# chain: DKLALCHLELTRKLQDLIKDVLRY
# Variants of: B1
# Test: protein stability index of a GFP-peptide fusion (GPS, HEK-293T) (PSI 1-6); higher = more stable
# Conditions: c terminus: a fixed tail appended
# 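Further: lentivirally expressed fusions sorted by FACS into six bins by GFP to DsRed ratio, PSI derived from sequencing read proportions per bin multiplied by bin number.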
row,Variant,protein stability index
1,DKLALCALELTRKLQDLIKDVLRY,1.84
2,DKLALCTLELTRKLQDLIKDVLRY,3.2
3,DKLALCCLELTRKLQDLIKDVLRY,2.12
4,DKLALCWLELTRKLQDLIKDVLRY,1.38
5,DKLALCILELTRKLQDLIKDVLRY,1.49
6,DKLALCQLELTRKLQDLIKDVLRY,2.88
7,DKLALCNLELTRKLQDLIKDVLRY,3.01
8,DKLALCLLELTRKLQDLIKDVLRY,1.56
9,DKLALCRLELTRKLQDLIKDVLRY,2.93
10,DKLALCSLELTRKLQDLIKDVLRY,1.81
11,DKLALCDLELTRKLQDLIKDVLRY,3.07
12,DKLALCMLELTRKLQDLIKDVLRY,2.67
13,DKLALCFLELTRKLQDLIKDVLRY,2.4
14,DKLALCHLELTRALQDLIKDVLRY,1.46
15,DKLALCHLELTRTLQDLIKDVLRY,3.29
16,DKLALCHLELTRYLQDLIKDVLRY,2.74
17,DKLALCHLELTRNLQDLIKDVLRY,1.8
18,DKLALCHLELTRLLQDLIKDVLRY,1.52
19,DKLALCHLELTRELQDLIKDVLRY,2.19
20,DKLALCHLELTRMLQDLIKDVLRY,2.21
21,DKLALCHLELTRVLQDLIKDVLRY,3.38
22,DKLALCHLELTRSLQDLIKDVLRY,1.98
23,DKLALCHLELTRCLQDLIKDVLRY,1.75
24,DKLALCHLELTRPLQDLIKDVLRY,2.54

row,Variant,protein stability index
1,DKLALCHLELTRGLQDLIKDVLRY,2.47
2,DKLALCHLELTRRLQDLIKDVLRY,2.23
3,DKLALCHLELTRILQDLIKDVLRY,1.15
4,DKLALCHLELTRDLQDLIKDVLRY,2.86
5,DKLALCHLELTRKEQDLIKDVLRY,2.3
6,DKLALCHLELTRKGQDLIKDVLRY,1.53
7,DKLALCHLELTRKRQDLIKDVLRY,2.6
8,DKLALCHLELTRKWQDLIKDVLRY,1.53
9,DKLALCHLELTRKKQDLIKDVLRY,1.95
10,DKLALCHLELTRKQQDLIKDVLRY,2.14
11,DKLALCHLELTRKYQDLIKDVLRY,1.49
12,DKLALCHLELTRKCQDLIKDVLRY,3.78
13,DKLALCHLELTRKPQDLIKDVLRY,2.99
14,DKLALCHLELTRKDQDLIKDVLRY,3.23
15,DKLALCHLELTRKNQDLIKDVLRY,2.33
16,DKLALCHLELTRKSQDLIKDVLRY,2.13
17,DKLALCHLELTRKMQDLIKDVLRY,4.05
18,DKLALCHLELTRKIQDLIKDVLRY,3.06
19,DKLALCHLELTRKFQDLIKDVLRY,1.12
20,DKLALCHLELTRKHQDLIKDVLRY,1.88
21,DKLALCHLEDTRKLQDLIKDVLRY,2.09
22,DKLALCHLETTRKLQDLIKDVLRY,2.14
23,DKLALCHLESTRKLQDLIKDVLRY,1.93
24,DKLALCHLEVTRKLQDLIKDVLRY,3

row,Variant,protein stability index
1,DKLALCHLEATRKLQDLIKDVLRY,2.75
2,DKLALCHLEPTRKLQDLIKDVLRY,1.69
3,DKLALCHLEKTRKLQDLIKDVLRY,1.59
4,DKLALCHLEGTRKLQDLIKDVLRY,1.86
5,DKLALCHLEYTRKLQDLIKDVLRY,1.76
6,DKLALCHLERTRKLQDLIKDVLRY,1.51
7,DKLALCHLENTRKLQDLIKDVLRY,1.21
8,DKLALCHLEQTRKLQDLIKDVLRY,3.04
9,DKLALCHLEMTRKLQDLIKDVLRY,4.05
10,DKLALCHLEETRKLQDLIKDVLRY,2.57
11,DKLALCHLECTRKLQDLIKDVLRY,2.22
12,DKLALCHLEFTRKLQDLIKDVLRY,3.33
13,DKLALCHLEHTRKLQDLIKDVLRY,1.3
14,KKLALCHLELTRKLQDLIKDVLRY,2.37
15,YKLALCHLELTRKLQDLIKDVLRY,2.63
16,FKLALCHLELTRKLQDLIKDVLRY,3.44
17,WKLALCHLELTRKLQDLIKDVLRY,1.41
18,SKLALCHLELTRKLQDLIKDVLRY,2.45
19,PKLALCHLELTRKLQDLIKDVLRY,4.01
20,NKLALCHLELTRKLQDLIKDVLRY,4.01
21,GKLALCHLELTRKLQDLIKDVLRY,5.1
22,RKLALCHLELTRKLQDLIKDVLRY,3.61
23,TKLALCHLELTRKLQDLIKDVLRY,2.77
24,QKLALCHLELTRKLQDLIKDVLRY,4.47

row,Variant,protein stability index
1,VKLALCHLELTRKLQDLIKDVLRY,3.12
2,DKLALNHLELTRKLQDLIKDVLRY,3.3
3,DKLALMHLELTRKLQDLIKDVLRY,3.01
4,DKLALVHLELTRKLQDLIKDVLRY,2.53
5,DKLALTHLELTRKLQDLIKDVLRY,2.99
6,DKLALEHLELTRKLQDLIKDVLRY,2.04
7,DKLALSHLELTRKLQDLIKDVLRY,3.13
8,DKLALQHLELTRKLQDLIKDVLRY,3.1
9,DKLALRHLELTRKLQDLIKDVLRY,2.52
10,DKLALPHLELTRKLQDLIKDVLRY,2.37
11,DKLALWHLELTRKLQDLIKDVLRY,2.01
12,DKLALDHLELTRKLQDLIKDVLRY,1.15
13,DKLALKHLELTRKLQDLIKDVLRY,3
14,DKLALAHLELTRKLQDLIKDVLRY,2.64
15,DPLALCHLELTRKLQDLIKDVLRY,1.39
16,DILALCHLELTRKLQDLIKDVLRY,2.57
17,DTLALCHLELTRKLQDLIKDVLRY,1.97
18,DHLALCHLELTRKLQDLIKDVLRY,2.72
19,DNLALCHLELTRKLQDLIKDVLRY,1.26
20,DCLALCHLELTRKLQDLIKDVLRY,3.86
21,DQLALCHLELTRKLQDLIKDVLRY,2.45
22,DSLALCHLELTRKLQDLIKDVLRY,2.21
